In article PMC9224406:
pKd: −log10 of the molar value.

How the values were obtained:
[1] = biological target: BDNF pro-peptide V66M pro-peptide (Homo sapiens) (UniProt P23560); experiment: SPR; conditions: cited from earlier work
[2] = biological target: BDNF pro-peptide pro-peptide (Homo sapiens) (UniProt P23560); experiment: SPR; conditions: cited from earlier work
[3] = biological target: human proBDNF V66M variant (human); experiment: SAXS; hproBDNF V66M in solution at five concentrations (0.14–1.45 mg/mL), 50 mM Sodium Phosphate pH 7.0, 283 K; molecular mass from I(0) against BSA and from the Porod volume, compared with the calculated monomer mass

Chain of BDNF (P23560 129-247): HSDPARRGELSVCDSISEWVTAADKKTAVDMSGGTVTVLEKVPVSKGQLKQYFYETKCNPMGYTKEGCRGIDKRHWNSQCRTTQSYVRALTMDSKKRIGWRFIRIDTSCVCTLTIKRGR
Chain of BDNF pro-peptide V66M pro-peptide (Homo sapiens) (P23560 19-128 V66M): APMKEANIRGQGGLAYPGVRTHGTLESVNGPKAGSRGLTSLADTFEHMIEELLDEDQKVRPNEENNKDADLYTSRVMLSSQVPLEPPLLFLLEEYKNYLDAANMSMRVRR
Chain of BDNF pro-peptide pro-peptide (Homo sapiens) (P23560 19-128): as the sequence (P23560 19-128 V66M) above, with M48V counted along it

stoichiometry N [3]	Substance	pKd [1]	pKd [2]
–	BDNF (from UniProt P23560)	9.92	9.38
2	human proBDNF V66M variant (natural protein)	–	–
